From publication PMC5454376 (Nature Communications, 2017)
Where no end group is shown, it is not given here.

Experiments:
Conditions in all cases: both partners purified
[1] = target: T1, Full-length human Gαi3, untagged (NMR sample) (human, UniProt P08754 1-354); experiment: fluorescence polarisation; fluorescein-labelled peptide 0.025 μM, G protein 0–8 μM; room temperature; 50 mM Tris-HCl pH 7.4, 100 mM NaCl, 0.4% NP-40, 10 mM MgCl2, 5 mM EDTA, 2 mM DTT, 30 μM GDP; one site binding hyperbola
T1 construct: Uniformly 2H,13C,15N labelled for NMR; also called Gαi3-GDP; 2H,13C,15N-Gαi3; source: E. coli BL21 Rosetta, pET24d(+), purified (His-Trap, tag cleavage, GST-Trap, Superdex 200); not shown: His tag, N-terminal, cleaved

Human His-Gαi3 S252A [2] = target: T2, Human His-Gαi3 S252A (human, UniProt P08754 1-354, S252 mutated to A); experiment: as above
T2 construct: Gαi3, human, UniProt P08754, full length; also called S252 mutated to A; source: E. coli, pET24d(+), purified as uncleaved His-tagged protein (HisPur Cobalt Resin); not shown: His tag, N-terminal, kept

Human His-Gαi3 WT [3] = target: T3, Human His-Gαi3 WT (human, UniProt P08754 1-354); experiment: as above
T3 construct: Gαi3, human, UniProt P08754, full length; same plasmid as for the NMR studies; also called His-tagged Gαi3; tagged protein; source: E. coli, pET24d(+), purified as uncleaved His-tagged protein (HisPur Cobalt Resin); not shown: His tag, N-terminal, kept

Human His-Gαi3 N256A [4] = target: T4, Human His-Gαi3 N256A (human, UniProt P08754 1-354, N256 mutated to A); experiment: as above
T4 construct: Gαi3, human, UniProt P08754, full length; also called N256 mutated to A; source: E. coli, pET24d(+), purified as uncleaved His-tagged protein (HisPur Cobalt Resin); not shown: His tag, N-terminal, kept

[5] = target: T5, Human His-Gαi3 ΔC9 (lacking the last nine residues) (human, UniProt P08754 1-345); experiment: as above
T5 construct: Gαi3, human, UniProt P08754, lacking the last nine residues; source: E. coli, pET24d(+), purified as uncleaved His-tagged protein (HisPur Cobalt Resin); not shown: His tag, N-terminal, kept

Human His-Gαi3 W211A = target: T6, Human His-Gαi3 W211A (human, UniProt P08754 1-354, W211A); experiment: as above
T6 construct: Gαi3, human, UniProt P08754, full length; source: E. coli, pET24d(+), purified as uncleaved His-tagged protein (HisPur Cobalt Resin); not shown: His tag, N-terminal, kept

Human His-Gαi3 S252A [6] = target: T2, Human His-Gαi3 S252A; experiment: pull-down; 10 μg GST-GIV or GST-DAPLE on glutathione agarose beads (~1.25 μM); His-Gαi3 WT or mutants ~1 μM in solution; 4 h, 4 °C; 50 mM Tris-HCl pH 7.4, 100 mM NaCl, 0.4% NP-40, 10 mM MgCl2, 5 mM EDTA, 2 mM DTT, 30 μM GDP; Coomassie blue
Human His-Gαi3 WT [7] = target: T3, Human His-Gαi3 WT; experiment: as above
Human His-Gαi3 N256A [8] = target: T4, Human His-Gαi3 N256A; experiment: as above
[9] = target: T5, Human His-Gαi3 ΔC9 (lacking the last …); experiment: as above
His-tagged rat Gαi3 = target: T7, His-tagged rat Gαi3 (rat, UniProt P08753 1-354); experiment: pull-down; as a1 but His-Gαi3 reloaded with GDP (Gαi3-[GDP]) and buffer supplemented with 100 μM GDP
T7 construct: Same protein in three nucleotide states (nucleotide-free, GDP, GDP/AlF4−); the states are told apart by the assays a1-a3; also called His-Gαi3; Gαi3-[GDP]; source: E. coli BL21(DE3), pET28b, purified (Superdex S75); nucleotide-depleted and reloaded or not with GDP or GDP/AlF4−

[10] = target: T1, Full-length human Gαi3, untagged (NMR …); experiment: NMR titration; 1H–15N TROSY and HNCO of 32 μM 2H,13C,15N-Gαi3 titrated with GIV peptide 1,671–1,696 (molar ratios 1:0 to 1:5); 30 °C; 10 mM HEPES pH 7.0, 10 mM MgCl2, 5 mM DTT, GDP; up to 3% DMSO
[11] = target: T1, Full-length human Gαi3, untagged (NMR …); experiment: NMR titration; 1H–15N TROSY and HNCO of 100 μM 2H,13C,15N-Gαi3 free and with a twofold molar excess of His-GIV-CT; 30 °C; 10 mM HEPES pH 7.0, 10 mM MgCl2, 5 mM DTT, threefold molar excess of GDP

Measured: binding result

T4 sequence (P08754 whole entry N256A): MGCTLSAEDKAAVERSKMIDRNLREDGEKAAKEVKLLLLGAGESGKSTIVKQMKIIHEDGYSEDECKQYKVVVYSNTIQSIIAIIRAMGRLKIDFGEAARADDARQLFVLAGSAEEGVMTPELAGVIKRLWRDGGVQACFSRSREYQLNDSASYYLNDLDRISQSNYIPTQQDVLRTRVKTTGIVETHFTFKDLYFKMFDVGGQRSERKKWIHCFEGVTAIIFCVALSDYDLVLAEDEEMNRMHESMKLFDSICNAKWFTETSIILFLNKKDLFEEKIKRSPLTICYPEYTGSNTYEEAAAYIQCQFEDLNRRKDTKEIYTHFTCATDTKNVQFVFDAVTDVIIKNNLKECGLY
T5 sequence (P08754 1-345, stated change not applied): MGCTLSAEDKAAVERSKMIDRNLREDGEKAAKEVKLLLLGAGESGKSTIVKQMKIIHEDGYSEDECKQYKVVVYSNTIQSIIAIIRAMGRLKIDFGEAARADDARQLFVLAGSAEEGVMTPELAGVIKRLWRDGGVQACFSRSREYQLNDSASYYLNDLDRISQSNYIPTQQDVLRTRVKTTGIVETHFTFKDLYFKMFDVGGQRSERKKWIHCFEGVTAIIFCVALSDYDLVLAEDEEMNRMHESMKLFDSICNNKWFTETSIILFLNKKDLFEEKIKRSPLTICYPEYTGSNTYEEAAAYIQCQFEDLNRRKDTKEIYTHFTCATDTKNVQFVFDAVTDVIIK
T3 sequence (P08754 whole entry): as the sequence (P08754 whole entry N256A) above, with A256N counted along it
T1 sequence (P08754 whole entry): as the sequence (P08754 whole entry N256A) above, with A256N counted along it
T2 sequence (P08754 whole entry S252A): as the sequence (P08754 whole entry N256A) above, with S252A, A256N counted along it
T7 sequence (P08753 whole entry): as the sequence (P08754 whole entry N256A) above, with P121S, S165T, D193E, A256N, E261D, I319V counted along it
T6 sequence (P08754 whole entry W211A): as the sequence (P08754 whole entry N256A) above, with W211A, A256N counted along it

B1: Fluorescein-labelled GIV peptide (residues 1,671–1,701) (peptide)
peptide: {5,6‑carboxyfluorescein}-KTGSPGSEVVTLQQFLEESNKLTSVQIKSSS
notes: numbers on UniProt Q3V6T2-3; also called GBA motif of GIV; GEF motif of GIV; source: synthetic peptide
binds: [1] | Human His-Gαi3 S252A [2] | Human His-Gαi3 WT [3] | Human His-Gαi3 N256A [4] | [5]

B2: Fluorescein-labelled RGS12 GoLoco peptide (residues 1,185–1,221) (peptide)
peptide: {5,6‑carboxyfluorescein}-DEAEEFFELISKAQSNRADDQRGLLRKEDLVLPEFLR
notes: RGS12, GoLoco motif, residues 1,185–1,221; 'human' stands at the head of the list 'human GIV ..., DAPLE ... or RGS12'; read as applying to all three; also called GoLoco motif of RGS12; RGS12 GoLoco motif; source: synthetic peptide
binds: Human His-Gαi3 WT [3] | Human His-Gαi3 W211A

B3: GST-DAPLE (1,650–1,745) (domain or fragment, human, UniProt Q9P219 1650-1745, looked up)
chain: GTAPPYVGVRPCSASPSSEMVTLEEFLEESNRSSPTHDTPSCRDDLLSDYFRKASDPPAIGGQPGPPAKKEGAKMPTNFVAPTVKMAAPTSEGRPL
notes: DAPLE (dishevelled-associating protein with high frequency of leucines), human, residues 1,650–1,745, cloned from Kazusa's clone fh14721 (KIAA1509)
binds: Human His-Gαi3 S252A [6] | Human His-Gαi3 WT [7] | Human His-Gαi3 N256A [8] | [9]

B4: GST-GIV (residues 1,671–1,755, containing its GBA motif) (domain or fragment, human, UniProt Q3V6T2-3 1671-1755, looked up)
chain: KTGSPGSEVVTLQQFLEESNKLTSVQIKSSSQENLLDEVMKSLSVSSDFLGKDKPVSCGLARSVSGKTPGDFYDRRTTKPEFLRP
notes: Girdin), human, residues 1,671–1,755
binds: His-tagged rat Gαi3 | Human His-Gαi3 S252A [6] | Human His-Gαi3 WT [7] | Human His-Gαi3 N256A [8] | [9]

B5: GIV peptide, amino acids 1,671–1,696 (GIVpept) (peptide)
peptide: KTGSPGSEVVTLQQFLEESNKLTSVQ
notes: GIV (Girdin), human, residues 1,671–1,696; numbers on UniProt Q3V6T2-3; Made on p-methylbenzhydrylamine resin; also called GIV fragment 1,671–1,696; source: synthetic peptide
binds: [10]

B6: His-tagged human GIV residues 1,660–1,870 (GIV-CT) (domain or fragment, UniProt Q3V6T2-3 1660-1870, looked up)
chain: SETLESRHHKIKTGSPGSEVVTLQQFLEESNKLTSVQIKSSSQENLLDEVMKSLSVSSDFLGKDKPVSCGLARSVSGKTPGDFYDRRTTKPEFLRPGPRKTEDTYFISSAGKPTPGTQGKIKLVKESSLSRQSKDSNPYATLPRASSVISTAEGTTRRTSIHDFLTKDSRLPISVDSPPAAADSNTTAASNVDKVQESRNSKSRSREQQSS
notes: MALDI mass consistent with the tagged fragment lacking the initial methionine; source: E. coli BL21(DE3), pET28b, purified (Co2+ and Ni2+ columns, Superdex 200); not shown: His tag, N-terminal, kept
binds: [11]
